Data set [1] deals with HeLa Kyoto. Nature of the data set: solubility in G1/S (NP-40 vs SDS abundance) (log2 ratio); higher = more soluble. The following applies: cell cycle stage: G1/S.
Data set [2] has as its system HeLa Kyoto. Nature of the data set: thermal stability score vs G1/S (z-score of summed log2 fold changes over temperatures); higher = more thermally stable than in G1/S.
Data set [3] has as its system HeLa Kyoto. Description: solubility change mitosis vs G1/S (difference of NP-40 vs SDS log2 ratios) (log2 ratio difference); higher = more soluble in mitosis.
Data set [4] has as its system HeLa Kyoto. Nature of the data set: melting temperature (median over replicates), in situ; higher = more thermally stable.
Where [5] appears, read: cell cycle stage: early G1 (4.5 h after nocodazole release).
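For melting temperature (median over replicates), in situ in this document: HeLa Kyoto cells synchronized by double thymidine or nocodazole block, proteins quantified by TMT10plex mass spectrometry, three independent biological replicates.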
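For solubility change mitosis vs G1/S (difference of NP-40 vs SDS log2 ratios) in this document: synchronized HeLa Kyoto cells (double thymidine block for G1/S, nocodazole release for mitosis), protein amounts in NP-40 versus SDS lysates quantified by mass spectrometry, three biological replicates.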
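For solubility in G1/S (NP-40 vs SDS abundance) in this document: HeLa Kyoto cells arrested at G1/S by double thymidine block, proteins quantified by TMT10plex mass spectrometry in mild NP-40 versus SDS extracts, three biological replicates.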
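For thermal stability score vs G1/S (z-score of summed log2 fold changes over temperatures) in this document: synchronized HeLa Kyoto cells, proteins quantified by TMT10plex mass spectrometry, three biological replicates, mitosis taken 0.5 h after nocodazole release, G1/S directly after double thymidine block.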

With “MMSLSVRPQRRLLSARVNRSQSFAGVLGSHERGPSLSFRSFPVFSPPGPPRKPPALSRVSRMFSVAHPAAKVPQPERLDLVYTALKRGLTAYLEVHQQEQEKLQGQIRESKRNSRLGFLYDLDKQVKSIERFLRRLEFHASKIDELYEAYCVQRRLRDGAYNMVRAYTTGSPGSREARDSLAEATRGHREYTESMCLLESELEAQLGEFHLRMKGLAGFARLCVGDQYEICMKYGRQRWKLRGRIEGSGKQVWDSEETIFLPLLTEFLSIKVTELKGLANHVVVGSVSCETKDLFAALPQVVAVDINDLGTIKLSLEVTWSPFDKDDQPSAASSVNKASTVTKRFSTYSQSPPDTPSLREQAFYNMLRRQEELENGTAWSLSSESSDDSSSPQLSGTARHSPAPRPLVQQPEPLPIQVAFRRPETPSSGPLDEEGAVAPVLANGHAPYSRTLSHISEASVDAALAEASVEAVGPESLAWGPSPPTHPAPTHGEHPSPVPPALDPGHSATSSTLGTTGSVPTSTDPAPSAHLDSVHKSTDSGPSELPGPTHTTTGSTYSAITTTHSAPSPLTHTTTGSTHKPIISTLTTTGPTLNIIGPVQTTTSPTHTMPSPTHTTASPTHTSTSPTHTPTSPTHKTSMSPPTTTSPTPSGMGLVQTATSPTHPTTSPTHPTTSPILINVSPSTSLELATLSSPSKHSDPTLPGTDSLPCSPPVSNSYTQADPMAPRTPHPSPAHSSRKPLTSPAPDPSESTVQSLSPTPSPPTPAPQHSDLCLAMAVQTPVPTAAGGSGDRSLEEALGALMAALDDYRGQFPELQGLEQEVTRLESLLMQRQGLTRSRASSLSITVEHALESFSFLNEDEDEDNDVPGDRPPSSPEAGAEDSIDSPSARPLSTGCPALDAALVRHLYHCSRLLLKLGTFGPLRCQEAWALERLLREARVLEAVCEFSRRWEIPASSAQEVVQFSASRPGFLTFWDQCTERLSCFLCPVERVLLTFCNQYGARLSLRQPGLAEAVCVKFLEDALGQKLPRRPQPGPGEQLTVFQFWSFVETLDSPTMEAYVTETAEEVLLVRNLNSDDQAVVLKALRLAPEGRLRRDGLRALSSLLVHGNNKVMAAVSTQLRSLSLGPTFRERALLCFLDQLEDEDVQTRVAGCLALGCIKAPEGIEPLVYLCQTDTEAVREAARQSLQQCGEEGQSAHRRLEESLDALPRIFGPGSMASTAF [FAM65A]”, in data set [1], the “solubility in G1/S (log2)” value amounted to 0.0594. The thermal stability score in data set [2] (setting [5]) turned out to be 0.236; in data set [2] (cell cycle stage: mitosis), 1.49. The “solubility change mitosis (log2)” value in data set [3] was -0.096. Besides, the melting temperature came out at 50.1 °C in data set [4] (cell cycle stage: G1/S) and 49.7 °C in data set [4] (cell cycle stage: mitosis).
Turning to “MEGLAGYVYKAASEGKVLTLAALLLNRSESDIRYLLGYVSQQGGQRSTPLIIAARNGHAKVVRLLLEHYRVQTQQTGTVRFDGYVIDGATALWCAAGAGHFEVVKLLVSHGANVNHTTVTNSTPLRAACFDGRLDIVKYLVENNANISIANKYDNTCLMIAAYKGHTDVVRYLLEQRADPNAKAHCGATALHFAAEAGHIDIVKELIKWRAAIVVNGHGMTPLKVAAESCKADVVELLLSHADCDRRSRIEALELLGASFANDRENYDIIKTYHYLYLAMLERFQDGDNILEKEVLPPIHAYGNRTECRNPQELESIRQDRDALHMEGLIVRERILGADNIDVSHPIIYRGAVYADNMEFEQCIKLWLHALHLRQKGNRNTHKDLLRFAQVFSQMIHLNETVKAPDIECVLRCSVLEIEQSMNRVKNISDADVHNAMDNYECNLYTFLYLVCISTKTQCSEEDQCKINKQIYNLIHLDPRTREGFTLLHLAVNSNTPVDDFHTNDVCSFPNALVTKLLLDCGAEVNAVDNEGNSALHIIVQYNRPISDFLTLHSIIISLVEAGAHTDMTNKQNKTPLDKSTTGVSEILLKTQMKMSLKCLAARAVRANDINYQDQIPRTLEEFVGFH [FEM1B]”, in data set [1], the “solubility in G1/S (log2)” value was -0.0515. Also, the thermal stability score in data set [2] (setting [5]) is 0.363; in data set [2] (cell cycle stage: mitosis), -1.04. The “solubility change mitosis (log2)” value in data set [3] was -0.0104. The melting temperature in data set [4] (cell cycle stage: G1/S) was found to be 53.5 °C; in data set [4] (cell cycle stage: mitosis) it was 52.2 °C.
As for “MADLANEEKPAIAPPVFVFQKDKGQKSPAEQKNLSDSGEEPRGEAEAPHHGTGHPESAGEHALEPPAPAGASASTPPPPAPEAQLPPFPRELAGRSAGGSSPEGGEDSDREDGNYCPPVKRERTSSLTQFPPSQSEERSSGFRLKPPTLIHGQAPSAGLPSQKPKEQQRSVLRPAVLQAPQPKALSQTVPSSGTNGVSLPADCTGAVPAASPDTAAWRSPSEAADEVCALEEKEPQKNESSNASEEEACEKKDPATQQAFVFGQNLRDRVKLINESVDEADMENAGHPSADTPTATNYFLQYISSSLENSTNSADASSNKFVFGQNMSERVLSPPKLNEVSSDANRENAAAESGSESSSQEATPEKESLAESAAAYTKATARKCLLEKVEVITGEEAESNVLQMQCKLFVFDKTSQSWVERGRGLLRLNDMASTDDGTLQSRLVMRTQGSLRLILNTKLWAQMQIDKASEKSIRITAMDTEDQGVKVFLISASSKDTGQLYAALHHRILALRSRVEQEQEAKMPAPEPGAAPSNEEDDSDDDDVLAPSGATAAGAGDEGDGQTTGST [RANBP3]”, the “solubility in G1/S (log2)” value in data set [1] amounted to 0.168. For the same substance, the results for the thermal stability score in data set [2] (setting [5]) and in data set [2] (cell cycle stage: mitosis) were 2.19 and 1.81, respectively. The “solubility change mitosis (log2)” value in data set [3] was -0.0529. Also, the melting temperature in data set [4] (cell cycle stage: G1/S) worked out at 55.3 °C; in data set [4] (cell cycle stage: mitosis), 56.9 °C.
Regarding “MAAPAQQTTQPGGGKRKGKAQYVLAKRARRCDAGGPRQLEPGLQGILITCNMNERKCVEEAYSLLNEYGDDMYGPEKFTDKDQQPSGSEGEDDDAEAALKKEVGDIKASTEMRLRRFQSVESGANNVVFIRTLGIEPEKLVHHILQDMYKTKKKKTRVILRMLPISGTCKAFLEDMKKYAETFLEPWFKAPNKGTFQIVYKSRNNSHVNREEVIRELAGIVCTLNSENKVDLTNPQYTVVVEIIKAVCCLSVVKDYMLFRKYNLQEVVKSPKDPSQLNSKQGNGKEAKLESADKSDQNNTAEGKNNQQVPENTEELGQTKPTSNPQVVNEGGAKPELASQATEGSKSNENDFS [THUMPD1]”, in data set [1], the “solubility in G1/S (log2)” value turned out to be 0.555. Moreover, the results for the thermal stability score in data set [2] (setting [5]) and in data set [2] (cell cycle stage: mitosis) were 0.34 and 2.04, respectively. For the same substance, the “solubility change mitosis (log2)” value in data set [3] was -0.0115. For the same substance, the melting temperature in data set [4] (cell cycle stage: G1/S) came out at 53.7 °C; in data set [4] (cell cycle stage: mitosis) it was 54.3 °C.
With “MDRSGFGEISSPVIREAEVTRTARKQSAQKRVLLQASQDENFGNTTPRNQVIPRTPSSFRQPFTPTSRSLLRQPDISCILGTGGKSPRLTQSSGFFGNLSMVTNLDDSNWAAAFSSQRSGLFTNTEPHSITEDVTISAVMLREDDPGEAASMSMFSDFLQSFLKHSSSTVFDLVEEYENICGSQVNILSKIVSRATPGLQKFSKTASMLWLLQQEMVTWRLLASLYRDRIQSALEEESVFAVTAVNASEKTVVEALFQRDSLVRQSQLVVDWLESIAKDEIGEFSDNIEFYAKSVYWENTLHTLKQRQLTSYVGSVRPLVTELDPDAPIRQKMPLDDLDREDEVRLLKYLFTLIRAGMTEEAQRLCKRCGQAWRAATLEGWKLYHDPNVNGGTELEPVEGNPYRRIWKISCWRMAEDELFNRYERAIYAALSGNLKQLLPVCDTWEDTVWAYFRVMVDSLVEQEIQTSVATLDETEELPREYLGANWTLEKVFEELQATDKKRVLEENQEHYHIVQKFLILGDIDGLMDEFSKWLSKSRNNLPGHLLRFMTHLILFFRTLGLQTKEEVSIEVLKTYIQLLIREKHTNLIAFYTCHLPQDLAVAQYALFLESVTEFEQRHHCLELAKEADLDVATITKTVVENIRKKDNGEFSHHDLAPALDTGTTEEDRLKIDVIDWLVFDPAQRAEALKQGNAIMRKFLASKKHEAAKEVFVKIPQDSIAEIYNQCEEQGMESPLPAEDDNAIREHLCIRAYLEAHETFNEWFKHMNSVPQKPALIPQPTFTEKVAHEHKEKKYEMDFGIWKGHLDALTADVKEKMYNVLLFVDGGWMVDVREDAKEDHERTHQMVLLRKLCLPMLCFLLHTILHSTGQYQECLQLADMVSSERHKLYLVFSKEELRKLLQKLRESSLMLLDQGLDPLGYEIQL [NUP107]”, the “solubility in G1/S (log2)” value in data set [1] was -0.526. In addition, the thermal stability score in data set [2] (setting [5]) is -2.75; in data set [2] (cell cycle stage: mitosis), -3.13. In addition, in data set [3], the “solubility change mitosis (log2)” value was 0.428. The melting temperature in data set [4] (cell cycle stage: G1/S) was found to be 51.1 °C; in data set [4] (cell cycle stage: mitosis), 49.3 °C.
On to NUP214, for which the “solubility in G1/S (log2)” value in data set [1] is -0.301. Also, the thermal stability score is -1.39 in data set [2] (setting [5]) and -1.03 in data set [2] (cell cycle stage: mitosis). Further, the “solubility change mitosis (log2)” value in data set [3] is 0.0567. Also, the melting temperature in data set [4] (cell cycle stage: G1/S) was 50.5 °C; in data set [4] (cell cycle stage: mitosis), 49.8 °C.
